Data published in paper doi:10.1101/2024.05.08.592267 (2024).

Molecular target: P69P4
Test: BLI

Kd: 3.88 pM
B1: biotinylated natural Ara h 2 (natural protein)
chain: RQQWELQGDRRCQSQLERANLRPCEQHLMQKIQRDEDSYGRDPYSPSQDPYSPSQDPDRRDPYSPSPYDRRGAGSSQHQERCCNELNEFENNQRCMCEALQQIMENQSDRLQGRQQEQQFKRELRNLPQQCGLRAPQRCDLEVESGGRDRY
modifications: biotin (position not given)
